Target: Smad3 (UniProt P84022)
Assay: co-immunoprecipitation, blot for 14-3-3σ
Settings: reference: wild type; sites S69,S74

binding against the reference: lost
Substance: 14-3-3σ (from UniProt P31947) S69/74A
